Results reported in publication PMC3659287.

Target: wild-type pneumolysin (PLY) (Streptococcus pneumoniae) (UniProt Q04IN8)
Experiment: ELISA

UniProt Q04IN8, sequence (Q04IN8 whole entry): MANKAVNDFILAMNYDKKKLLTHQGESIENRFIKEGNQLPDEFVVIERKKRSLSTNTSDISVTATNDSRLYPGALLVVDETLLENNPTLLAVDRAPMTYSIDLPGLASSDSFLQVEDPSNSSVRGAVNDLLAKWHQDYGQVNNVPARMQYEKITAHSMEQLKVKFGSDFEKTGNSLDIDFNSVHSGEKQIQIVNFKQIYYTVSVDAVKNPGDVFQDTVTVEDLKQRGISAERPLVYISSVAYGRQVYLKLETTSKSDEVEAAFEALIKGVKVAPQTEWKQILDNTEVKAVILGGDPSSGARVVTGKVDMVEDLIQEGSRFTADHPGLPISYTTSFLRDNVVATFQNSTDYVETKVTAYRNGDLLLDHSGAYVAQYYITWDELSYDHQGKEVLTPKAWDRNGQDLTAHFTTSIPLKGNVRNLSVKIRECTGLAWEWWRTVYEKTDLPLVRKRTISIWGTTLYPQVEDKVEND

G-actin (non-muscle actin isolated from human platelets) (from UniProt P60709 1-375) (natural protein)
Kd: 170 to 190 nM
